Laboratory results taken from PMC12474298 (2025).
Where no end group is shown, it is not given here.

Legend:
Assay in all cases: FP
[1] = molecular target: IMPα1 minor site mutant E396R (human)
[2] = molecular target: human importin α1 lacking the importin-β binding domain (hIMPα1ΔIBB) (human)
[3] = molecular target: IMPα1 major site mutant D192K (human)

B1: HaHV1 UL36h NLS peptide (residues 1491-1500), FITC/Ahx-labelled (peptide)
peptide: ETKKRRRILE
modifications: not fully specified (N-terminus); also: FITC/Ahx-labelled, position not given here
Kd [1]: 1760 nM | Kd [2]: 362 nM | Kd [3]: 3550 nM
